US20250197448A1 (published 2025)
Each block holds one binder with its values, some of them ahead of it. Starred links: 1 amine or outer side, 2 acyl side, 3 side chain; linkers in the order of their positions; H or OH if unused. Positions of bridges follow the written chain, without caps; N, C: chain ends. Non-standard residues stand in square brackets, D forms with d. No end group written: not given here. O2beY = O-(2-bromoethyl)-tyrosine (p-2beF), reacts with Cys to form a thioether, O=C([C@H](Cc1ccc(OCCBr)cc1)N[*:1])[*:2]; pCaaF = p-(2-chloroacetamido)-phenylalanine, O=C(CCl)Nc1ccc(C[C@H](N[*:1])C(=O)[*:2])cc1

Columns and labels:
Desert Hedgehog (Dhh) = Desert Hedgehog (Dhh) (human, UniProt O43323 23-198); test: immobilized Dhh binding assay; FIG. 13C
Sonic Hedgehog (Shh) = Sonic Hedgehog (Shh) (human, UniProt Q15465 24-197); test: immobilized Shh binding assay; FIG. 13C
Indian Hedgehog (Ihh) = Indian Hedgehog (Ihh) (human, UniProt Q14623 28-202); test: immobilized Ihh binding assay; FIG. 13C
[1] = target: T1, PD-L1 (Programmed Death-Ligand 1), recombinant, His-tagged (human, UniProt Q9NZQ7 18-134); test: in vitro PD-L1 binding assay
T1 chain: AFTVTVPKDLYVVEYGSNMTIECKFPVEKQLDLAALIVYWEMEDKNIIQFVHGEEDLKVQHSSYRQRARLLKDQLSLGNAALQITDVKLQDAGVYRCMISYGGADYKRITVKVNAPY

[2] = target: T1, PD-L1 (Programmed Death-Ligand 1), …; test: in vitro PD-L1 binding assay; FIG. 15A
cRK10(pCmF) = test: in vitro PD-L1 binding assay
cCLP002(pCmF) = test: in vitro PD-L1 binding assay
cCLP002(pCaaF) = test: in vitro PD-L1 binding assay
[3] = target: T1, PD-L1 (Programmed Death-Ligand 1), …; test: in vitro PD-L1 binding assay

Sequence of Indian Hedgehog (Ihh) (Q14623 28-202): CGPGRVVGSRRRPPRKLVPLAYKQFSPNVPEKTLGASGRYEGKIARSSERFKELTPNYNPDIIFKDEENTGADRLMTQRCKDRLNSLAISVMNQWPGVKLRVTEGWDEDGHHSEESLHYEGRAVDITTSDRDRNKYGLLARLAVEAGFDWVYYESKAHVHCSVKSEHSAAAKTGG

Kd (Desert Hedgehog (Dhh)): 9 nM
Kd (Sonic Hedgehog (Shh)): 8 nM
Kd (Indian Hedgehog (Ihh)): 8 nM
Binder: DYKDDDDKGSGSTLSW[O2beY]EAMDMCTSSQQQQQQ-{Fc-H6} (Fc fusion, thioether 17-23; also: dimeric through the Fc) [L2-m5-Tras-Fc]

Binder: DYKDDDDKGSGSTYLCGAISLA[pCaaF]KAQIKESLEAAAK-{Fc-H6} (Fc fusion, thioether 16-23) [FLAG-cRK10-EAAAK-Tras-Fc-His]
Kd [1]: 88 nM

Binder: TYLCGAISLA[pCaaF]KAQIKESL (thioether 4-11) [cyclic peptide cRK10 (pCaaF)]
Kd [2]: 12000 nM

Binder: DYKDDDDKGSGSTYLCGAISLA[pCaaF]KAQIKESLPAPAP-{Fc-H6} (Fc fusion, thioether 16-23) [FLAG-cRK10-PAPAP-Tras-Fc-His]
Kd [1]: 90 nM

Kd (cRK10(pCmF)): > 100000 nM
Kd (cCLP002(pCmF)): > 15000 nM
Kd (cCLP002(pCaaF)): 87000 nM
B1: PD-L1 (ligand)
chain: T1 chain

Binder: DYKDDDDKGSGSTYLCGAISLA[pCaaF]KAQIKESLGSGSGS-{Fc-H6} (Fc fusion, thioether 16-23) [FLAG-cRK10-(GS)3-Tras-Fc-His]
Kd [1]: 88 nM

Binder: DYKDDDDKGSGSWHFS[pCaaF]NWRWLPCQQQQQQ (Fc fusion, thioether 17-24 (inferred); not fully specified (C-terminus)) [cCLP003 (pCaaF)-Tras-Fc]
Kd [3]: 238 nM
